Results reported in patent publication US20250161408A1, “PEPTIDIC INHIBITORS OF AMYLOID SELF- AND CROSS-ASSEMBLY” (published 2025).
Non-standard residues stand in square brackets, D forms with d. NMeF = CN[C@@H](Cc1ccccc1)C(=O)O; NMeL = CN[C@@H](CC(C)C)C(=O)O; NMeV = CN[C@H](C(=O)O)C(C)C; Nle = CCCC[C@H](N)C(=O)O

T1: Fluos-IAPP (human, UniProt P10997, N-terminal fluorescein)
T1 peptide: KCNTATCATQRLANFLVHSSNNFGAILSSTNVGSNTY

T2: Fluos-Nle3-VF (N-terminal 5,6-carboxyfluorescein; X = norleucine (Nle); N-methyl on Val18 and Phe20)
T2 peptide: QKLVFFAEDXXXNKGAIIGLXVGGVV

B1: L3-VF (peptide)
peptide: H-QKL[NMeV]F[NMeF]AEDLLLNKGAIIGL[Nle]VGGVV-OH
SMILES: CCCC[C@H](NC(=O)[C@H](CC(C)C)NC(=O)CNC(=O)[C@@H](NC(=O)[C@@H](NC(=O)[C@H](C)NC(=O)CNC(=O)[C@H](CCCCN)NC(=O)[C@H](CC(N)=O)NC(=O)[C@H](CC(C)C)NC(=O)[C@H](CC(C)C)NC(=O)[C@H](CC(C)C)NC(=O)[C@H](CC(=O)O)NC(=O)[C@H](CCC(=O)O)NC(=O)[C@H](C)NC(=O)[C@H](Cc1ccccc1)N(C)C(=O)[C@H](Cc1ccccc1)NC(=O)[C@H](C(C)C)N(C)C(=O)[C@H](CC(C)C)NC(=O)[C@H](CCCCN)NC(=O)[C@@H](N)CCC(N)=O)[C@@H](C)CC)[C@@H](C)CC)C(=O)N[C@H](C(=O)NCC(=O)NCC(=O)N[C@H](C(=O)N[C@H](C(=O)O)C(C)C)C(C)C)C(C)C
B2: F3-VF (peptide)
peptide: H-QKL[NMeV]F[NMeF]AEDFFFNKGAIIGL[Nle]VGGVV-OH
SMILES: CCCC[C@H](NC(=O)[C@H](CC(C)C)NC(=O)CNC(=O)[C@@H](NC(=O)[C@@H](NC(=O)[C@H](C)NC(=O)CNC(=O)[C@H](CCCCN)NC(=O)[C@H](CC(N)=O)NC(=O)[C@H](Cc1ccccc1)NC(=O)[C@H](Cc1ccccc1)NC(=O)[C@H](Cc1ccccc1)NC(=O)[C@H](CC(=O)O)NC(=O)[C@H](CCC(=O)O)NC(=O)[C@H](C)NC(=O)[C@H](Cc1ccccc1)N(C)C(=O)[C@H](Cc1ccccc1)NC(=O)[C@H](C(C)C)N(C)C(=O)[C@H](CC(C)C)NC(=O)[C@H](CCCCN)NC(=O)[C@@H](N)CCC(N)=O)[C@@H](C)CC)[C@@H](C)CC)C(=O)N[C@H](C(=O)NCC(=O)NCC(=O)N[C@H](C(=O)N[C@H](C(=O)O)C(C)C)C(C)C)C(C)C
B3: Nle3-VF (peptide)
peptide: H-QKL[NMeV]F[NMeF]AED[Nle][Nle][Nle]NKGAIIGL[Nle]VGGVV-OH
SMILES: CCCC[C@H](NC(=O)[C@H](CC(=O)O)NC(=O)[C@H](CCC(=O)O)NC(=O)[C@H](C)NC(=O)[C@H](Cc1ccccc1)N(C)C(=O)[C@H](Cc1ccccc1)NC(=O)[C@H](C(C)C)N(C)C(=O)[C@H](CC(C)C)NC(=O)[C@H](CCCCN)NC(=O)[C@@H](N)CCC(N)=O)C(=O)N[C@@H](CCCC)C(=O)N[C@@H](CCCC)C(=O)N[C@@H](CC(N)=O)C(=O)N[C@@H](CCCCN)C(=O)NCC(=O)N[C@@H](C)C(=O)N[C@H](C(=O)N[C@H](C(=O)NCC(=O)N[C@@H](CC(C)C)C(=O)N[C@@H](CCCC)C(=O)N[C@H](C(=O)NCC(=O)NCC(=O)N[C@H](C(=O)N[C@H](C(=O)O)C(C)C)C(C)C)C(C)C)[C@@H](C)CC)[C@@H](C)CC
B4: L3-LF (peptide)
peptide: H-QK[NMeL]V[NMeF]FAEDLLLNKGAIIGL[Nle]VGGVV-OH
SMILES: CCCC[C@H](NC(=O)[C@H](CC(C)C)NC(=O)CNC(=O)[C@@H](NC(=O)[C@@H](NC(=O)[C@H](C)NC(=O)CNC(=O)[C@H](CCCCN)NC(=O)[C@H](CC(N)=O)NC(=O)[C@H](CC(C)C)NC(=O)[C@H](CC(C)C)NC(=O)[C@H](CC(C)C)NC(=O)[C@H](CC(=O)O)NC(=O)[C@H](CCC(=O)O)NC(=O)[C@H](C)NC(=O)[C@H](Cc1ccccc1)NC(=O)[C@H](Cc1ccccc1)N(C)C(=O)[C@@H](NC(=O)[C@H](CC(C)C)N(C)C(=O)[C@H](CCCCN)NC(=O)[C@@H](N)CCC(N)=O)C(C)C)[C@@H](C)CC)[C@@H](C)CC)C(=O)N[C@H](C(=O)NCC(=O)NCC(=O)N[C@H](C(=O)N[C@H](C(=O)O)C(C)C)C(C)C)C(C)C
B5: F3-LF (peptide)
peptide: H-QK[NMeL]V[NMeF]FAEDFFFNKGAIIGL[Nle]VGGVV-OH
SMILES: CCCC[C@H](NC(=O)[C@H](CC(C)C)NC(=O)CNC(=O)[C@@H](NC(=O)[C@@H](NC(=O)[C@H](C)NC(=O)CNC(=O)[C@H](CCCCN)NC(=O)[C@H](CC(N)=O)NC(=O)[C@H](Cc1ccccc1)NC(=O)[C@H](Cc1ccccc1)NC(=O)[C@H](Cc1ccccc1)NC(=O)[C@H](CC(=O)O)NC(=O)[C@H](CCC(=O)O)NC(=O)[C@H](C)NC(=O)[C@H](Cc1ccccc1)NC(=O)[C@H](Cc1ccccc1)N(C)C(=O)[C@@H](NC(=O)[C@H](CC(C)C)N(C)C(=O)[C@H](CCCCN)NC(=O)[C@@H](N)CCC(N)=O)C(C)C)[C@@H](C)CC)[C@@H](C)CC)C(=O)N[C@H](C(=O)NCC(=O)NCC(=O)N[C@H](C(=O)N[C@H](C(=O)O)C(C)C)C(C)C)C(C)C
B6: Nle3-LF (peptide)
peptide: H-QK[NMeL]V[NMeF]FAED[Nle][Nle][Nle]NKGAIIGL[Nle]VGGVV-OH
SMILES: CCCC[C@H](NC(=O)[C@H](CC(=O)O)NC(=O)[C@H](CCC(=O)O)NC(=O)[C@H](C)NC(=O)[C@H](Cc1ccccc1)NC(=O)[C@H](Cc1ccccc1)N(C)C(=O)[C@@H](NC(=O)[C@H](CC(C)C)N(C)C(=O)[C@H](CCCCN)NC(=O)[C@@H](N)CCC(N)=O)C(C)C)C(=O)N[C@@H](CCCC)C(=O)N[C@@H](CCCC)C(=O)N[C@@H](CC(N)=O)C(=O)N[C@@H](CCCCN)C(=O)NCC(=O)N[C@@H](C)C(=O)N[C@H](C(=O)N[C@H](C(=O)NCC(=O)N[C@@H](CC(C)C)C(=O)N[C@@H](CCCC)C(=O)N[C@H](C(=O)NCC(=O)NCC(=O)N[C@H](C(=O)N[C@H](C(=O)O)C(C)C)C(C)C)C(C)C)[C@@H](C)CC)[C@@H](C)CC

Biological target: FITC-Aβ42 (Homo sapiens (Human), UniProt P05067, N-terminal fluorescein-isothiocyanate-β-Ala)
Assay: fluorescence spectroscopic titration of FITC-Aβ42 (5 nM, pH 7.4) with the ACM; app. KD
Protocol: (§1) Fluorescence spectroscopic studies were performed with a Jasco FP-6500 fluorescence spectrophotometer. Briefly, excitation was at 492 nm and spectra were measured between 500 and 600 nm. All titrations were performed in freshly made solutions of synthetic N-terminal fluorescently labeled peptide (5 nM) and various amounts of unlabeled peptide in 10 mM sodium phosphate buffer, pH 7.4 (1% HFIP) within 2-5 min following solution preparation. […] Apparent binding affinities (app. KDs) were estimated by using 1/1 binding models. However, due to the high self-assembly propensities of involved peptides more complex models might also apply.

Binder	Kd [nM]
B1	38
B2	161
B3	14.5
B4	2.6
B5	431
B6	11.1

Biological target: T1, Fluos-IAPP
Assay: fluorescence spectroscopic titration of Fluos-IAPP (5 nM, pH 7.4) with the ACM; app. KD
Protocol: On the right side of each figure panel, the corresponding binding curves are shown; data are means±SD from 3 binding curves. […] KDs (means±SD from 3 binding curves) are in Table 1.
as §1, with “apply. […] KDs are means (±SD) from three binding curves derived from three independent titration assays.” for “apply.”

Binder	Kd [nM]
B1	77.3
B2	15
B3	69.5
B4	143
B5	37.6
B6	55.4

Biological target: T2, Fluos-Nle3-VF
Assay: self-assembly: fluorescence spectroscopic titration of Fluos-Nle3-VF (5 nM) with Nle3-VF; app. KD
Protocol: as §1, with “apply. […] KDs are means (±SD) from three binding curves derived from three independent titration assays.” for “apply.”

Binder	Kd [nM]
B3	51.9
